Experimental data as given in patent US6555107.

Biological target: human CXCR4 (human) (UniProt P61073)
Assay: cell-based or functional assay

UniProt P61073, sequence (P61073 whole entry): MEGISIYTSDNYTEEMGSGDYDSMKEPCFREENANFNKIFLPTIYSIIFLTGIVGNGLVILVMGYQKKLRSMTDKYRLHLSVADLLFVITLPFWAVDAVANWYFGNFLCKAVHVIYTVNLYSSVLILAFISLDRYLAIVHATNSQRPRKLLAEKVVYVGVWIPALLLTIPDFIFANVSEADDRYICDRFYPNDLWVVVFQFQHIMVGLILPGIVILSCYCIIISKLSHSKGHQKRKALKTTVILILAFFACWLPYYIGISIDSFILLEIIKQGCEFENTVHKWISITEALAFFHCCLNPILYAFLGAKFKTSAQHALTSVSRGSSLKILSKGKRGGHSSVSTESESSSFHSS

## FIV envelope protein (product of the env gene of FIV clone 34TF10, Petaluma strain) (from UniProt P16090 1-856)
  infectivity of replication-competent 34TF10 on CRFK.CXCR4 against CRFK cells (focal infectivity assay): 8 fold
  titer of FIV Env-enveloped CTRZLb vector on CRFK.CXCR4 cells (transducing units/ml): 360
